We go through two substances from article PMC4433220.

This data set addresses Dps (Escherichia coli) (UniProt P0ABT2). The data set can be described thus: AFM. The settings on record: EMSA: 50 mM Tris-HCl pH 7.5, 0.1 mM EDTA, 50 mM NaCl, 37°C 30 min, footprinting: 50 mM Tris-HCl pH 8.0, 0.1 mM EDTA, 0.1 mM DTT, 10 mM MgCl2, 50 mM NaCl ….

pET28b nicked with Nt.BspD6I showed a binding signal (nm DNA per bound Dps) (nicked at GAGTC sites (9 sites), 4 nt 3' of the site, top strand) of 117.

In turn, pET28b native yielded a binding signal (nm DNA per bound Dps) of 135.
